{
  "source": "paper PMC6471432",
  "about": "“The 3′ Untranslated Region of a Plant Viral RNA Directs Efficient Cap-Independent Translation in Plant and Mammalian Systems”",
  "key": {"human eIF4E [1]": {"molecular_target": "T1, human eIF4E (Homo sapiens, UniProt P06730 1-217)", "T1 sequence (P06730 whole entry)": "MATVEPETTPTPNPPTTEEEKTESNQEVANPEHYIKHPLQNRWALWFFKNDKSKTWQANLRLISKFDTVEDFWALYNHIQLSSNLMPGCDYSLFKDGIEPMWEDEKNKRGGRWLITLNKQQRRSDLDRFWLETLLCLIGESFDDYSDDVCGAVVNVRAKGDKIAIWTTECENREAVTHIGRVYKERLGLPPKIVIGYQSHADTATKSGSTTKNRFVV", "test": "EMSA; EMSA: 10 mM HEPES pH 7.5, 20 mM KCl, 1 mM DTT, 3 mM MgCl2, 1 ug/uL tRNA, 0.5 ug/uL BSA, 1 U/uL RNaseOUT, 5% glycerol, 10 uL, 25 min on ice, gel at 4 C; SHAPE: benzoyl cyanide, 22 C", "conditions": "protein: recombinant; label: 32P; pseudoknot between C and G domains"}, "human eIF4E [2]": {"molecular_target": "T1, human eIF4E", "test": "EMSA; text: not shifted by 2 uM; EMSA: 10 mM HEPES pH 7.5, 20 mM KCl, 1 mM DTT, 3 mM MgCl2, 1 ug/uL tRNA, 0.5 ug/uL BSA, 1 U/uL RNaseOUT, 5% glycerol, 10 uL, 25 min on ice, gel at 4 C; SHAPE: benzoyl cyanide, 22 C", "conditions": "protein: recombinant; label: 32P; pseudoknot between C and G domains; three bands without protein"}},
  "data": [
    {"binder": "PEMV2 PTE capped (structured_RNA, 5' cap) RNA: GUAGUGGUAGAACACGUGGGAUAGGGGAUGACCUUGUCGACCGGUUAUCGGUCCCCUGCUCCUUCGAGCUGGCAAGGCGCUCACAGGUUCUACACUGCUACUA", "values": [
      {"measurement": "Kd", "setting": "human eIF4E [1]", "result": "285 ± 33", "unit": "nM"}
    ]},
    {"binder": "PEMV2 PTE uncapped (structured_RNA) RNA: GUAGUGGUAGAACACGUGGGAUAGGGGAUGACCUUGUCGACCGGUUAUCGGUCCCCUGCUCCUUCGAGCUGGCAAGGCGCUCACAGGUUCUACACUGCUACUA", "values": [
      {"measurement": "Kd", "setting": "human eIF4E [2]", "result": "2520 ± 435", "unit": "nM"}
    ]},
    {"binder": "TPAV PTE capped (structured_RNA, 5' cap) RNA: GGACAAGACCCCAGGCGGGACGCCACACCCAUGUUUGCAGACAUGGCCCGAGGAAACUCUGGUGUGGGCUGGGGGGAAUCC", "values": [
      {"measurement": "Kd", "setting": "human eIF4E [1]", "result": "160 ± 1", "unit": "nM"}
    ]},
    {"binder": "TPAV PTE uncapped (structured_RNA) RNA: GGACAAGACCCCAGGCGGGACGCCACACCCAUGUUUGCAGACAUGGCCCGAGGAAACUCUGGUGUGGGCUGGGGGGAAUCC", "values": [
      {"measurement": "Kd", "setting": "human eIF4E [1]", "result": "838 ± 124", "unit": "nM"}
    ]}
  ]
}
